In patent US20240101686A1:
Like-named read-outs stand apart in the source and are kept apart here.

Assays:
[1] = target: human EGFR on cells (human) (UniProt P00533)
[2] = target: human EGFRvIII on cells (human) (UniProt P00533); test: FACS on CHO-K1-EGFRvIII 2G3 cells
[3] = target: human EGFR on cells (human) (UniProt P00533); remark: listed apart in the source
[4] = target: human EGFR on cells (human) (UniProt P00533); remark: listed apart in the source
[5] = target: human EGFR on cells (human) (UniProt P00533); remark: listed apart in the source
[6] = target: human EGFR-His-tagged fusion protein (human) (UniProt P00533)
[7] = target: human EGFR on cells (human) (UniProt P00533); remark: listed apart in the source
[8] = target: human EGFRvIII on cells (human) (UniProt P00533)
[9] = target: human EGFR-His-tagged fusion protein (human) (UniProt P00533); remark: listed apart in the source
Her2 protein (human) = Her2 protein (human) (UniProt P04626)
[10] = target: human EGFR-His-tagged fusion protein (human) (UniProt P00533); remark: listed apart in the source
[11] = target: murine EGFR protein (murine) (UniProt Q01279)
[12] = target: human EGFRvIII-His tag protein (extracellular domain Leu25-Ser378) (human) (UniProt P00533)
[13] = target: human EGFRvIII-His tag protein (extracellular domain Leu25-Ser378) (human) (UniProt P00533); remark: listed apart in the source
[14] = target: monkey EGFR protein (commercial, SB, catalog number 90285-C08H) (monkey); test: ELISA, coated monkey EGFR protein, antibody 0.1 nM
[15] = target: murine EGFR protein (murine) (UniProt Q01279); remark: listed apart in the source
[16] = target: murine EGFR protein (murine) (UniProt Q01279); remark: listed apart in the source
[17] = target: monkey EGFR protein (commercial, SB, catalog number 90285-C08H) (monkey); test: ELISA, coated monkey EGFR protein, antibody 100 nM
[18] = target: murine EGFR protein (murine) (UniProt Q01279); remark: listed apart in the source
[19] = target: monkey EGFR protein (commercial, SB, catalog number 90285-C08H) (monkey); test: ELISA, coated monkey EGFR protein, antibody 0.01 nM
[20] = target: human EGFRvIII-His tag protein (extracellular domain Leu25-Ser378) (human) (UniProt P00533); remark: listed apart in the source
[21] = target: monkey EGFR protein (commercial, SB, catalog number 90285-C08H) (monkey); test: ELISA, coated monkey EGFR protein, antibody 1 nM
[22] = target: human EGFRvIII-His tag protein (extracellular domain Leu25-Ser378) (human) (UniProt P00533); remark: listed apart in the source
[23] = target: human EGFRvIII-His tag protein (extracellular domain Leu25-Ser378) (human) (UniProt P00533); remark: listed apart in the source
[24] = target: cynomolgus monkey EGFR on HEK293T-monkey EGFR cells (cynomolgus monkey); test: FACS, HEK293T-monkey EGFR cells (specificity assay)
[25] = target: monkey EGFR protein (commercial, SB, catalog number 90285-C08H) (monkey); test: ELISA, coated monkey EGFR protein, antibody 0.0001 nM
[26] = target: murine EGFR protein (murine) (UniProt Q01279); remark: listed apart in the source
[27] = target: monkey EGFR protein (commercial, SB, catalog number 90285-C08H) (monkey); test: ELISA, coated monkey EGFR protein, antibody 0 nM (blank)
[28] = target: human EGFRvIII-His tag protein (extracellular domain Leu25-Ser378) (human) (UniProt P00533); remark: listed apart in the source
[29] = target: monkey EGFR protein (commercial, SB, catalog number 90285-C08H) (monkey); test: ELISA, coated monkey EGFR protein, antibody 10 nM
[30] = target: murine EGFR protein (murine) (UniProt Q01279); remark: listed apart in the source
[31] = target: human EGFRvIII-His tag protein (extracellular domain Leu25-Ser378) (human) (UniProt P00533); remark: listed apart in the source
[32] = target: murine EGFR protein (murine) (UniProt Q01279); remark: listed apart in the source
[33] = target: human EGFRvIII-His tag protein (extracellular domain Leu25-Ser378) (human) (UniProt P00533); remark: listed apart in the source
[34] = target: murine EGFR protein (murine) (UniProt Q01279); remark: listed apart in the source
[35] = target: human EGFR endogenously expressed on A431 cells (human) (UniProt P00533)
[36] = target: cynomolgus monkey EGFR on HEK293T-monkey EGFR cells (cynomolgus monkey); test: FACS, HEK293T-monkey EGFR cells
[37] = target: monkey EGFR protein (commercial, SB, catalog number 90285-C08H) (monkey); test: ELISA, coated monkey EGFR protein, antibody 0.001 nM

## anti-hel-hIgG1 (antibody)
[1]
  Average fluorescence intensity: 74
[2]
  Average fluorescence intensity: 35.4
[3]
  Max MFI: 159
[4]
  Average fluorescence intensity: 1560
[5]
  Average fluorescence intensity: 1560
[6]
  OD450: 0.05
[7]
  Average fluorescence intensity: 1560
[8]
  Average fluorescence intensity: 35.4
[9]
  OD450: 0.07
Her2 protein (human)
  OD450: 0.21
[10]
  OD450: 0.71

## anti-hel-hIgG1 (negative control antibody against hen egg lysozyme)
[11]
  OD450: 0.05
[12]
  OD450: 0.09
[13]
  OD450: 0.19
[14]
  OD450: 0.09
[15]
  OD450: 0.06
[16]
  OD450: 0.05
[17]
  OD450: 0.71
[18]
  OD450: 1.16
[19]
  OD450: 0.19
[20]
  OD450: 0.08
[21]
  OD450: 0.21
[22]
  OD450: 0.6
[23]
  OD450: 0.22
[24]
  Max MFI: 141
[25]
  OD450: 0.06
[26]
  OD450: 0.12
[27]
  OD450: 0.07
[28]
  OD450: 0.07
[29]
  OD450: 0.13
[30]
  OD450: 0.06
[31]
  OD450: 0.07
[32]
  OD450: 0.06
[33]
  OD450: 0.13
[34]
  OD450: 0.06
[35]
  Max MFI: 199
[36]
  Max MFI: 240
[37]
  OD450: 0.09
